US8501181B2, “Compositions and methods for treating osteolytic disorders comprising MMP-14 binding proteins” (Dyax Corp., priority 2007, dated 2013)

Key:
Raw 264.7 cells = assay: Osteoclastogenesis (TRAP staining) and bone resorption (pits) on osteologic slides, RANK ligand-stimulated; type: cell-based, Mouse; conditions: Raw 264.7 cells + 100 ng/ml murine soluble RANK ligand, 6 days; GM6001 5, 10, 25 μM; 539A-M0240-B03 10, 50 μg/ml; 539A-M0237-D02 10, 100 μg/ml; dose-dependent; data not shown
Protocol: Cells. […] Cells between passage 3-7 were used in this study.
Materials. […] Tartrate-resistant acid phosphatase (TRAP) staining kit was obtained from KAMIYA BIOMEDICA COMPANY™, Seattle Wash. (Catalog #KT-008). GM6001 was obtained from MILLIPORE™.
Methods. Approximately 2000 Raw 264.7 cells per slide were seeded onto osteologic multitest slides with complete growth medium. […] The slides were then incubated at 37° C. for 6 days, replacing fresh media on day 3 as described above. At the end of incubation time, one side of the slide was stained for TRAP and the other side of the slide was bleached (10% bleach), washed several times with water, and air dried. The slides were then viewed under the microscope for either multinucleated TRAP positive cells or resorbed areas (pits). Cells incubated with media only and recombinant osteoprotegerin (rH OPG) (100 ng/ml) served as negative and positive controls, respectively.

[1] = system: PC-3 prostate cancer cells; assay: PC-3 prostate cancer model, intra-tibial inoculation, osteolytic lesions; type: in vivo; conditions: mice, intra-tibial PC-3 cells; 10 mg/kg Q2D for 14 days, started 3 days after inoculation; vs PBS control; X-ray and bone histomorphometric analysis
Protocol: PC-3 prostate cancer cells were inoculated intra-tibially into mice. Treatment was initiated 3 days after intra-tibial inoculation of the cells. DX-2400 (10 mg/kg) and a PBS control were administered Q2D for 14 days.

MMP-14 = MMP-14 (Homo sapiens, UniProt P50281); assay: MMP-14 inhibition (statement, no method given); type: biochemical
MMP-9 [2] = biological target: T1, MMP-9 (Homo sapiens, UniProt P14780); assay: MMP-9 inhibition, selectivity (statement, no method given); type: biochemical
Target sequence in this assay (P14780 94-707, species assumed): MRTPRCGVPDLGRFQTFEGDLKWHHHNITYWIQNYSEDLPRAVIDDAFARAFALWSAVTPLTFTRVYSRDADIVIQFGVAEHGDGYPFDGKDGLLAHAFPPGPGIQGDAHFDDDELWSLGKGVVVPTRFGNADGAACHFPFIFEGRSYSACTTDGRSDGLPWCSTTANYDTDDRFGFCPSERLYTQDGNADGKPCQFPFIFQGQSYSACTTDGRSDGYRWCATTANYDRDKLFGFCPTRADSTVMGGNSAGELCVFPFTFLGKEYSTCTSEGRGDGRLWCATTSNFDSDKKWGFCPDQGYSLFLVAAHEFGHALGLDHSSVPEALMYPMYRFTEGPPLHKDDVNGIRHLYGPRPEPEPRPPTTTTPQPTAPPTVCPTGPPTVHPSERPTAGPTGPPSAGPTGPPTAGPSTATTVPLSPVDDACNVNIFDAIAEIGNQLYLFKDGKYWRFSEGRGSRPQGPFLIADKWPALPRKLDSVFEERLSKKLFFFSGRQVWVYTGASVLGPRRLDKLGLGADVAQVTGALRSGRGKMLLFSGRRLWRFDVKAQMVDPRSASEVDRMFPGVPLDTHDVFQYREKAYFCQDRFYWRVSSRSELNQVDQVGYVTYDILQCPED

MMP-9 [3] = biological target: T1, MMP-9; assay: Inhibition of human MMP-9 activity (statement, no method given); type: biochemical
Target sequence in this assay (P14780 94-707): as the sequence (P14780 94-707, species assumed) above

mouse MMP-9 = mouse MMP-9 (Mus musculus, UniProt P41245); assay: Inhibition of mouse MMP-9 activity (statement, no method given); type: biochemical
mouse MMP-9, sequence (P41245 108-730): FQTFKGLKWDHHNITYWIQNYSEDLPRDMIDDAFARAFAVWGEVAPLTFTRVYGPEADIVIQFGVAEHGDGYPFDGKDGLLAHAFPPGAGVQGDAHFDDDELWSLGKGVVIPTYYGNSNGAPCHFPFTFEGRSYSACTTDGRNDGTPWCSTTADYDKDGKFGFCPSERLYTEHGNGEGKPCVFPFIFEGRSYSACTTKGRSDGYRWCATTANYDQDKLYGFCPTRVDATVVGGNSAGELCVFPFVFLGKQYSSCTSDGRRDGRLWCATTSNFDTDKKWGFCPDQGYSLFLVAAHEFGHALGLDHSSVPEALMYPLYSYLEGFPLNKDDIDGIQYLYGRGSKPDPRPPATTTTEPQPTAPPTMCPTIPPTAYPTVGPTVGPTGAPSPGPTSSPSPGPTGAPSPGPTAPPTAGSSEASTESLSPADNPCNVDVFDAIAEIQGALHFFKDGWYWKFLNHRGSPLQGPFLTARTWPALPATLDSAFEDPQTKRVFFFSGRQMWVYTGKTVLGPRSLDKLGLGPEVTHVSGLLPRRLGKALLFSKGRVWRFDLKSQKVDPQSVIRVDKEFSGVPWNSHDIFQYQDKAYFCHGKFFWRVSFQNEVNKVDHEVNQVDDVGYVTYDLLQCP

Row | selectivity of MMP-14 inhibition (MMP-14) | selectivity of MMP-9 inhibition (MMP-9 [2]) | effect on activity of human MMP-9 (MMP-9 [3]) | effect on activity of mouse MMP-9 (mouse MMP-9) | Molecule | effect on bone resorption (number of resorbed areas, pits) (Raw 264.7 cells) | effect on osteoclastogenesis (TRAP-positive staining) (Raw 264.7 cells) | reduction of the area of the osteolytic lesions [1]
1 | – | – | – | – | CNC(=O)[C@H](Cc1c[nH]c2ccccc12)NC(=O)[C@@H](CC(=O)NO)CC(C)C [GM6001, reference compound] | inhibitory effects | inhibitory effects | –
2 | selective inhibitor of MMP-14 | – | – | – | DX-2400: exemplary MMP-14 antibody; VH SEQ ID NO: 22, VL SEQ ID NO: 23; shares HC and LC CDRs with M0038-F01 (antibody, V domains shown, exemplary MMP-14 antibody; shares HC and LC CDRs with M0038-F01) VH: EVQLLESGGGLVQPGGSLRLSCAASGFTFSLYSMNWVRQAPGKGLEWVSSIYSSGGSTLYADSVKGRFTISRDNSKNTLYLQMNSLRAEDTAVYYCARGRAFDIWGQGTMVTVSS VL: DIQMTQSPSSLSASVGDRVTITCRASQSVGTYLNWYQQKPGKAPKLLIYATSNLRSGVPSRFSGSGSGTDFTLTISSLQPEDFATYYCQQSYSIPRFTFGPGTKVDIK | – | – | about 3 fold
3 | – | selective inhibitor of MMP-9 | can decrease or inhibit the activity | can decrease or inhibit the activity | 539A-M0240-B03: exemplary MMP-9 antibody; LC CDRs SEQ ID NO: 14-16, HC CDRs SEQ ID NO: 17-19 (antibody, V domains shown) VL: QYELTQPRSVSGSPGQSVTISCTGTSSDVGGYNYVSWYQQHPGKAPKLMIYDVSKRPSGVPDRFSGSKSGNTASLTISGLQAEDEADYYCCSYAGSYTLVFGGGTKLTVL VH: EVQLLESGGGLVQPGGSLRLSCAASGFTFSTYQMVWVRQAPGKGLEWVSVIYPSGGPTVYADSVKGRFTISRDNSKNTLYLQMNSLRAEDTAVYYCARGEDYYDSSGPGAFDIWGQGTMVTVSS | inhibitory effects | inhibitory effects | –
